Measured values taken from US8975044B2, “Polynucleotides encoding for frizzled-binding agents and uses thereof” (OncoMed Pharmaceuticals, Inc., priority 2008, dated 2015).

Key:
[1] = tested on: PE13 breast tumors; assay: PE13 breast tumor limiting dilution assay (LDA); assay type: in vivo, mice; conditions: antibody 20 mg/kg once per week; 50, 150 or 500 cells re-injected, 59 days; L-calc
Experimental: PE13 breast tumor limiting dilution assay (LDA) study with 18R5 mAb: Animals bearing PE13 breast tumors were treated with either control antibody (gray circles), 18R5 (open triangles), taxol (black circles), or the combination of taxol and 18R5 (open squares). Taxol was dosed at 15 mg/kg twice per week and the antibodies were dosed 20 mg/kg once per week. Tumors were harvested and the human tumor cells were purified by lin depletion. 50, 150, or 500 tumor cells were injected into a new cohort of mice (n=10 per cell dose). Tumor growth frequency was monitored after 59 days and used to calculate the CSC frequency (L-calc).

[2] = tested on: PN13 tumors; assay: Alcian blue and ki67 staining of treated PN13 tumor sections; assay type: in vivo, NOD/SCID mice; conditions: vs control antibody
Experimental: FIG. 43. Treatment with anti-FZD antibody 18R5 promotes differentiation of tumor cells into non-proliferative mucinous cells. NOD/SCID mice were injected with 50,000 OMP-PN13 pancreatic tumor cells and on day 23, mice with tumors of average volume of about 107 mm^3 were randomized, and treatment with control antibody or 18R5 was initiated four days later. After 20 days tumors were collected and sectioned. Tumor sections from 18R5 treated mice or control antibody treated mice were stained with alcian blue stain to reveal mucinous cells and by immunohistochemistry with antibody to ki67 to reveal proliferative cells. Exemplary mucinous cells and proliferative cells are highlighted by arrows.
Increased mucinous cells were also noted in a second pancreatic tumor line, PN13, following treatment with 18R5 […] (FIG. 43). In this experiment mice bearing PN13 tumors were treated as described above (Example 7). Tumors sections were stained with alcian blue to reveal mucinous cells and also stained by immunohistochemistry with an antibody to ki67 to reveal cells undergoing proliferation. […] Additionally, the frequency of ki67 positive cells was reduced by 18R5 treatment. […] This provides evidence that 18R5 treatment is promoting the differentiation of tumor cells into non-proliferative progeny.

[3] = tested on: OMP-C28 tumors; assay: Flow cytometry of ESA and CD44 on cells of treated OMP-C28 tumors; assay type: in vivo, NOD/SCID mice; conditions: tumors harvested day 48; control antibody 64%
Experimental: Control and treated tumors from the OMP-C28 xenograft study described above (Example 7) were harvested at the end of the study (day 48). The tumors were processed and dissociated into single cells. Tumor cells were then incubated with biotinylated mouse antibodies (α-mouse CD45-biotin 1:200 dilution and rat α-mouse H2 Kd-biotin 1:100 dilution, BioLegend, San Diego, Calif.) on ice for 30 min followed by addition of streptavidin-labeled magnetic beads (Invitrogen, Carlsbad, Calif.) to remove mouse cells with the aid of a magnet.
For analysis of cell surface markers, the single tumor cell suspension was stained with anti-ESA (Biomeda) and anti-CD44 (BD Biosciences) antibodies which were directly conjugated to fluorochromes. Dead cells were excluded by using the viability dye DAPI. Flow cytometry was performed using a FACS Aria (Becton Dickinson). Side scatter and forward scatter profiles were used to eliminate cell clumps.

[4] = tested on: OMP-Pn4 tumors; assay: Limiting dilution assay of cancer stem cell frequency in treated OMP-Pn4 tumors; assay type: in vivo, NOD/SCID mice; conditions: tumors after 41 days treatment; 30-810 cells re-injected, 75 days; L-Calc
Experimental: Control and treated tumors from the OMP-Pn4 xenograft study described above (Example 7) were harvested at the end of 41 days treatment. The tumors were processed and dissociated into single cells. Tumor cells were then incubated with biotinylated mouse antibodies (α-mouse CD45-biotin 1:200 dilution and rat α-mouse H2 Kd-biotin 1:100 dilution, BioLegend, San Diego, Calif.) on ice for 30 min followed by addition of streptavidin-labeled magnetic beads (Invitrogen, Carlsbad, Calif.) to remove mouse cells. The remaining human cells in the suspension were collected, counted and diluted to appropriate cell doses (30, 90, 270 and 810 cells), mixed in the mixture of 1:1 (v/v) FACS buffer and Matrigel and injected subcutaneously in NOD/SCID mice (10 mice per cell dose per treatment group). Each dot in FIG. 40 represents the tumor volume of an individual mouse. The percentage of mice with detectable tumors was determined in all groups injected with anti-FZD antibody treated tumor cells and compared to the percentage of mice with detectable tumors in the controls. For example, the number of mice injected with 810 control-treated tumor cells that have detectable tumors was determined and compared to the number of mice injected with 810 FZD-antibody treated tumor cells that have detectable tumors. […]

[5] = tested on: Wnt target genes; assay: qPCR of Wnt target genes in duodenum of OMP-PN13-bearing mice; assay type: in vivo, NOD/SCID mice
Experimental: Frozen OMP-PN13 tumor cells that have been passaged twice in mice were obtained from Oncomed's tumor bank. They were thawed and injected subcutaneously into the left flank of NOD/SCID mice immediately following thawing. ˜ 25,000 viable cells were injected per animal. The mice were monitored weekly for tumor growth. After their onset, the size of the tumors was measured once weekly by caliper. 200-300 mm^3 tumor-bearing mice were dispatched in treatment groups that each contained 5 animals. […] Ab treatment was initiated the day after randomization. LZ1 was used as the negative control Ab. 3 doses of 10 mg/kg of Ab were administered via intra-peritoneal injection over a 12-day period. Mice were euthanized 24 hours after the last injection. Tumor, duodenum and liver were harvested.
Total RNAs were also extracted from tumor, duodenum and liver for Wnt target gene expression analyses using qPCR.
Tissues were immediately transferred into RNAlater (QIAGEN) at the time of harvest. RNA was extracted using the QIAGEN RNeasy for Fibrous Tissue mini kit according to the manufacturer instructions. […] All 5 tumors of each treatment group were analyzed. […] ABI SDS 2.2.1 software was used to analyze the data and calculate DeltaCt values that were converted into relative quantities. […] Fold inhibition factors were then calculated relative to control antibody (LZ1).

B1: 18R5: human anti-FZD antibody; VH SEQ ID NO:10 (as 18R8), VL SEQ ID NO:14; binds FZD1, 2, 5, 7, 8 (antibody, V domains shown)
VH: EVQLVESGGGLVQPGGSLRLSCAASGFTFSHYTLSWVRQAPGKGLEWVSVISGDGSYTYYADSVKGRFTISSDNSKNTLYLQMNSLRAEDTAVYYCARNFIKYVFANWGQGTLVTVSS
VL: DIELTQPPSVSVAPGQTARISCSGDNIGSFYVHWYQQKPGQAPVLVIYDKSNRPSGIPERFSGSNSGNTATLTISGTQAEDEADYYCQSYANTLSLVFGGGTKLTVLG
modifications: 18R5/18R8 heavy chain variable region (VH); 18R5 light chain variable region (VL)
[1]
  breast cancer stem cell frequency: Reduction of breast cancer stem cell frequency
[2]
  alcian blue positive mucinous cells: greatly increased numbers of alcian blue positive mucinous cells
  frequency of ki67 positive cells: reduced
[3]
  bulk tumor population expressing both ESA and CD44 at high levels (double positive): 40%
[4]
  cancer stem cell frequency: reduced cancer stem cell frequency
[5]; fold relative to control antibody LZ1, 3 doses of 10 mg/kg over 12 days
  duodenum Lgr5: −2.6x
[5]; relative to LZ1
  Wnt target gene in the duodenum: unaffected
